Measured values: US20200399712A1, “COMPOSITIONS AND METHODS FOR THE DIAGNOSIS AND DETECTION OF TUMORS AND CANCER PROGNOSIS” (priority 2018, published 2020)
“Also recorded” adds a separate entry of the source.

Key:
[1] = test system: HPV-16; experiment: qPCR sensitivity against HPV-HNSCC tumor samples diluted among 10 ng normal human DNA
[2] = test system: HPV-16; experiment: qPCR on 20 ng DNA from saliva samples of HPV-HNSCC patients; conditions: 28 HPV-HNSCC saliva samples
Protocol: (§1) All samples were run in triplicates.
The sensitivity of detection from saliva 20 ng DNA samples is 32.1% (9/28) in E6 primer-probe sets, 42.9% (12/28) in E7 primer-probe sets, 35.7% (10/28) in “Min-5” primer-probe sets, 46.4% (13/28) in “Max-10” primer-probe sets. The sensitivity of combination of “5” and “10” is 50% (14/28) and that of E6 and E7 is 42.9% (12/28). By the standard curve analysis, the copy numbers that detected by “Max-10” primer-probe sets were the highest in these 4 primer-probe sets. The slope of standard curve is −3.5 in “Min-5” primer-probe sets when delta Rn is plotted against cycle threshold (FIG. 5).

[3] = test system: HPV-16 genome; experiment: qPCR sensitivity against HPV-16 copy number (known-copy HPV-16 DNA among 10 ng normal human DNA)
Text: as §1
To seek the most promising primer-probe set in the viewpoint of sensitivity, Applicants evaluated the sensitivity analysis for these candidate primer-probe sets. […] Therefore, the sensitivity of E6 (FIG. 3A) and E7 (FIG. 3B) was also 30 copies. […] The candidate primer-probe sets were the “Min-4” (FIG. 3C), “Min-5” (FIG. 3D), “Min-6” (FIG. 3E), “Max-10” (FIG. 3F), “E6-11” (FIG. 3G), “E6-13” (FIG. 3H), respectively.
In addition, Applicants performed sensitivity analysis to identify the most sensitive primer/probe set from among the candidate sets.
To validate the function of primer/probe sets, Applicants calculated the slope of delta Rn against cycle threshold for HPV-16 copy number detection from defined HPV copy number DNA derived from CaSki cell line.

[4] = tumor DNA dilution, fraction of 32 samples
[5] = among 10 ng normal DNA, triplicate qPCR
[6] = samples tested 3 times, 10 ng DNA from healthy individual

B1: E6: previously designed (historical) HPV-16 E6 primers and Taqman probe, SEQ ID NO: 7-9, positive control (nucleic acid)
DNA 1: TCAGGACCCACAGGAGCG
DNA 2: CCTCACGTCGCAGTAACTGTTG
DNA 3: CCCAGAAAGTTACCACAGTTATGCACAGAGCT
modifications: Taqman probe, labels not given here
In the case of B1, the “sensitivity under 100 cells” value ([1]; 32 HPV-HNSCC tumor samples) is reported as 90.6%, the “sensitivity under single cells” value ([1]; 32 HPV-HNSCC tumor samples, 6.6 pg DNA) is reported as 12.5% and the “sensitivity under 10 cells” value ([1]; 32 HPV-HNSCC tumor samples, 66 pg DNA) is reported as 53.1%. The “Threshold of tumor cell numbers for HPV-16 detection” value (shortened to “Threshold of tumor cell numbers”) ([1]; Sample # 1) was 150.0 tumor cells, the “Threshold of tumor cell numbers” value ([1]; Sample # 2) was 30.0 tumor cells and the “Threshold of tumor cell numbers” value ([1]; Sample # 3) was 6.0 tumor cells. The “Threshold of tumor cell numbers” value ([1]; Sample # 4) was 150.0 tumor cells, the “Threshold of tumor cell numbers” value ([1]; Sample # 5) was 30.0 tumor cells and the “Threshold of tumor cell numbers” value ([1]; Sample # 6) was 150.0 tumor cells. For the same molecule, the “Threshold of tumor cell numbers” value ([1]; Sample # 7) was 30.0 tumor cells, the “Threshold of tumor cell numbers” value ([1]; Sample # 8) was 15.0 tumor cells and the “Threshold of tumor cell numbers” value ([1]; Sample # 9) was 60.0 tumor cells. For the same molecule, the “Threshold of tumor cell numbers” value ([1]; Sample # 10) was 30.0 tumor cells, the “Threshold of tumor cell numbers” value ([1]; Sample # 11) was 60.0 tumor cells and the “Threshold of tumor cell numbers” value ([1]; Sample # 12) was 15.0 tumor cells. For the same molecule, the “Threshold of tumor cell numbers” value ([1]; Sample # 13) was 6.0 tumor cells, the “Threshold of tumor cell numbers” value ([1]; Sample # 14) was 6.0 tumor cells and the “Threshold of tumor cell numbers” value ([1]; Sample # 15) was 6.0 tumor cells. For the same molecule, the “Threshold of tumor cell numbers” value ([1]; Sample # 16) was 6.0 tumor cells, the “Threshold of tumor cell numbers” value ([1]; Sample # 17) was 30.0 tumor cells and the “Threshold of tumor cell numbers” value ([1]; Sample # 18) was 6.0 tumor cells. The “Threshold of tumor cell numbers” value ([1]; Sample # 19) was 1.2 tumor cells, the “Threshold of tumor cell numbers” value ([1]; Sample # 20) was 0.5 tumor cells and the “Threshold of tumor cell numbers” value ([1]; Sample # 21) was 1.2 tumor cells. The “Threshold of tumor cell numbers” value ([1]; Sample # 22) was 0.3 tumor cells, the “Threshold of tumor cell numbers” value ([1]; Sample # 23) was 1.2 tumor cells and the “Threshold of tumor cell numbers” value ([1]; Sample # 24) was 1.2 tumor cells. The “Threshold of tumor cell numbers” value ([1]; Sample # 25) was 0.3 tumor cells, the “Threshold of tumor cell numbers” value ([1]; Sample # 26) was 0.6 tumor cells and the “Threshold of tumor cell numbers” value ([1]; Sample # 27) was 15.0 tumor cells. The “Threshold of tumor cell numbers” value ([1]; Sample # 28) was 3.0 tumor cells, the “Threshold of tumor cell numbers” value ([1]; Sample # 29) was 3.0 tumor cells and the “Threshold of tumor cell numbers” value ([1]; Sample # 30) was 15.0 tumor cells. The “Threshold of tumor cell numbers” value ([1]; Sample # 31) was 3.0 tumor cells, the “Threshold of tumor cell numbers” value ([1]; Sample # 32) was 15.0 tumor cells and the “Sensitivity, 1 cell” value [1, 4] was 0.125. The “Sensitivity, 3 cells” value [1, 4] was 0.250, the “Sensitivity, 10 cells” value [1, 4] was 0.531 and the “Sensitivity, 30 cells” value [1, 4] was 0.844. The “Sensitivity, 100 cells” value [1, 4] was 0.906, the “sensitivity of detection from saliva 20 ng DNA samples” value [2] was 32.1% and the “sensitivity (HPV-16 copies)” value ([3]; HPV-16 genome among normal 10 ng DNA samples, consistent triplicate reaction) was 30 copies. The “reaction under 10 copies of HPV-16 genome” value [3, 5] was “reacted inconsistently”, the “reaction under 30 copies of HPV-16 genome” value [3, 5] was “reacted consistently triplicate; also recorded: reacted consistently in triplicates” and the “number of reactions against 10 HPV-16 copies” value [3, 6] was “one”. For the same molecule, the “number of reactions under 30 HPV-16 copies” value [3, 6] was 3 reactions.
